Data reported in the DeepSol protein solubility set.

Assay: soluble on expression in E. coli; label from the status in PepcDB or PDB records

Row | Sequence | soluble on expression in E. coli
1 | MSLKLSAREWKDFSLEELFTVRGTKTTPLIILRKNNKKREKQLPYVTTKSTYNGIDDFFSGFTEEGNVITIDSATDGYVFYQLNNFSASDHVEKLIPKFKLNKYIALFLVNCIKKATKCKYGYGYKFSQTRIKRQKIMLPASNNQPDFQFMERYIKEKHFNLKSRIKEKQNHEINDWRELDDVEWTPFSTSEVFNNIQRGKRLTKSNQIKGLTPYISSSGINNGLDNFISNNEKIREFDNCLTIANSGSVGSAFYHTYRFIASDHVTHLKNNNLNKFSYLFIANMLRRLEGKYSFNRGINDFRIKRERILLPTKNNRPEYEFMEQYMKRKENEILDRLEGHHHHHH | not soluble
2 | MSLKNARLHVINPDEVATSVLFRLLAPTGIESRHYPCAEDFLNQYQANGPACLLVDMLLPDWGPLRLLGELKRRQIHHPCIFMSYRCEEQTLMELLEQQAFAFIKKPLNQVKLTELIQVAMGQDQKEGHHHHHH | not soluble
3 | MSLKNLDINIVSEVRRIDNGRLDIPVYFSVCGDDASQYTGTKKQMGKGASPIQSEASACMELAERFSFFSFSKNADNFLLGDYEEMRAAGYPVLDMEHLLKSVHDTHTTVAQLEKLLAGIPMQWTWATKMTGEEGEVLIPFSWFFAINEFNGPSAGNTQEEAALQGLCEIVERDVCSRINRDKLPTAKIDVETIKDPVAVELLEKFAKNNIEVYLNDFSLETGIASVGALAIDRSTFPEKSEIVYTAGTTPNPEKAIIRAITEVAQLAGDFNTGSNYIASGLPKPLSMSEVTYLTETADQVTIDEMVDISDDNIYTEVKNCLDSLKNNGFDVYMIDVCHPQLQIPALYTIIPGAHFRERSMICNAGLFCAKLLVERIEDPAEQEVKLGEMSVLEGHHHHHH | not soluble
4 | MSLKNNEKLIKWLFDTNAIRVCPKDKPFWYTSGTIGPYYINTHFLYGSEEKANKLLEFIDKEKENILKCPDRILEETMKNYQSDPIYRGLIDEMCDFIKNNIDVNEVDYISGGERRDWFFSPIIAKLLNKPHITIYKDLTTVVSSDGKTEELKELNGESVLHIADLITEASSYERAWIPAIKNNGGRIKWSVVVVDRKQGGAELLKSYDIKSFSMVDIDEGHHHHHH | soluble
5 | MSLKNPPQILMPDVVYTDLKKPILVHIKDDESSIKNVQIILHKDDNTSAMVIADEKISNLKDITLQVALPKFGYKENVKSFVLEVIAKDSSFWNFFSGNEARKQIAVLVDNTAPKINIISNSYQIEQGGAGAVVFKADDANLDKVYIETNKGKIFKATPYVKEGYYAALIAWDARDEEFRAFVIATDKAGNISKERIRYYFVNRKYRVSNINLTDKFLDGKIENLANQYAPKDNNLNRYEKFKFVNETLRNSNEKLIHEITSKVPEEKIDNFDLNLFLPLKNGMKVADFADHRYYSYNGQFVSDSYHMGLDLASVAQAPIISNNAGKVVFAAENGIYGLNLIVYHGFGVYSLYGHCSSKNVDLDEMINKQSIIGKTGTSGLALGDHLHFGVLVQGVETRPEQWQDKKWIENNIYNVLNDGKKIILGKNEGHHHHHH | soluble
6 | MSLKNTGYILALCLTASGHVLAHDVWITGKQAENNVTAEIGYGHNFPSKGTIPDRRDFFENPRLYNGKETITLKPASTDYVYKTESASKDNGYVLSTYMKPGYWSRTSSGWKPVSREGRNDVAYCEFVTKYAKSFIPGEQQMPAQLYQSPTGHELEIIPLSDISRFSENVKLKVLYKTSPLAGAIMELDSVSYLTSSRHTHAVEHKHPVHKAELTFVTNEDGIVTVPSLHIGQWLAKVQNKKSFQDKSLCDETVDVATLSFSRNEGHHHHHH | soluble
7 | MSLKPESPNQDDFIIITMENLALYAIFDGHGPYGHDVSNYVQKELPYMIIKNENFLKNPKEVFTKAFLNIHENIERTTNAYLDSFTNKNSDSTMSGTTATIIVHLFKEKKLYVAYVGDSRAVLGKRKNGSKQLSAVELTKDHKPNCAAEKKRILSSGGQVMKLEGDIPYRVFIKNKFYPGLAMSRAIGDTIGHQIGIIAEPDFIEVNINEDEDILVLICSDGVWEFISSEEAVNLIYEFGYNNVQDAVENLARESWDRWLNEEENIVDDITIQAIYLSEKSKYLKEGHHHHHH | not soluble
8 | MSLKPIIPEDERSKEPLDTDRVIYHPDMIRANEWVLNEYEAPYRELCIFVPCAKRKPYHESPSHKKFDRIIFGIAKPEDVHIVTFGTCGITPRELDTQYPFMHYSFMMGKCNVAKIKRDFIKMESERLAAYLEKTRDNYKHRIAYCIGDFRTAMEKAVEMVDVEVDIVPRESTIQKMIQPDKPFIYNSLSSREYLQDFSDAITDALKLPKRKVGLKEDLSVDDADWYLLEGHHHHHH | soluble
9 | MSLKPTIYDIAKKANVSKSTVSRVLNNQPNISDKAKASVLQAIKELNYEPSKIARGLSGNGFDAILALSHRTSHTTYGNPFFSDVIQSISAVSEQNNFDLILQTAKTPEEELEKCAKKIQEKMIRGIIILSSTMDETLLFELDQYNIPIVVIGKVGNDYTNIYSVDTDNFQDSYDLVETLIKNGHRHIGCLHAPTEVYVSNDRLNGYRQCLFDHHLDIRNEWIIDGGFRLEDSMAAMNDLMKLRERPTAIFSTDALKSLSIYKVAEQSGKQIPDDLSIAGFSDPLLSSLFSPQLTRIDIPTNQLGIKATELLFQLIHHQYPEEKRIILSTEITLTDSIEGHHHHHH | not soluble
10 | MSLKQINIQKFITAKRIAKYSSLESYKLNILESQKYYSSLSILEVSLRNAIDFYFTERYGESWTDLLDIFKYKEISKIEEAKNFLKLKQEECTKDKIVAELNFGFCTSLFSKTYEEQMRKNNLIKIFNNLPKNKQINRAYLSRKLNNIRNFRNRIFHYEKIINKPEYLNIENDINEILEFLDKEILGFSIGLNIEGHHHHHH | soluble
11 | MSLKRMLAEFEKIQAILMAFPHEFSDWAYCIKEARESFLNIIQTIAKHAKVLVCVHTNDTIGYEMLKNLPGVEIAKVDTNDTWARDFGAISIENHGVLECLDFGFNGWGLKYPSNLDNQVNFKLKSLGFLKHPLKTMPYVLEGGSIESDGAGSILTNTQCLLEKNRNPHLNQNGIETMLKKELGAKQVLWYSYGYLKGDDTDSHTDTLARFLDKDTIVYSACEDKNDEHYTALKKMQEELKTFKKLDKTPYKLIPLEIPKAIFDENQQRLPATYVNFLLCNDALIVPTYNDPKDALILETLKQHTPLEVIGVDCNTLIKQHGSLHCVTMQLYEGGSHHHHHH | soluble
12 | MSLKRVLAVQRISRDTEASSALTRQDEALTRAIRQGTYREVGRVVDATVSGAVHLDQRPSLRRWLAEPLVHEWDVLMVTEQDRITRDDMHWWHFVDWTLKNGKDVEVLDDPTFDIQSEDGRMLAGIKAAQAAKYRKAVQAKQLDRTQFFRENRLWNGGVWPFGYRAEVFSHLGERRKRLTVDPCTSRLVREAYDRLVHGEGTVYAVARDWNLRGVPSARDHQRREQNKDLPEQEHRPEKGTRWSVTPLRNILRSPALMGVMMHRSEPVLDAEGQPVVWAEPVLTSEEFAELQEVVLTEQRTAESGPGKRWRTPLLGVVFCMCGRPMYVRHQKNHLADGTTAVLTYYQCRSVSEMNRCEAPSTWRAESLCAVVERDFLDQAGDRTEMKRTYVPGRDHTAAIAELRSALANLTVAIGTATAPAAVAVLTRQMDEHARTITRLEAEPVVHARWKEEPTGAAYREQWRAVKDWESRAALLAKAGVRFFCEGTHKSGSVHMYLPSASQRRVSGVSLSKEAVEVVGIGPLEEEARRYFTDLRRTKGMGPGFWYSREGHHHHHH | not soluble
13 | MSLKRYSGFLIDLDGTMYRGSEVITEAVAFVKQLEKQSASYLFVTNNSTKSPETVATLLKSMDVPATKEHVFTSSMAMASYLTRTKEFVRAFVIGEEGLLESLKESGMMVSEDEQPDYVVMGLDRAISYEKLAKAATYVRQGAKFFITNGDAALPTEKGLMPGNGSLAAVVATTTGVKPFVVGKPSPIIIEEALKRLGTTKEETLLIGDNYDTDILAGIHAGIDTLLVHTGVTTKEALKQKEAQPTYTCESLADWQRSIEEEGHHHHHH | soluble
14 | MSLKSKEKLFIANVADSNLNEADKDKAKNEIAKLNASQVVATTLASSVRETEKQEKIETDICNENAISESKLDGIDDLEFVDENYYISPSLDTLATLSKYEIQKVENLVVGNKQYGKIEFLDPVDLSDIPLGSICDDLVVFQPMSVLLYNNSTNVPEKGKGLNVRARISCYNCYPLDKSTRKPIKDPNHRIMERYSEKLKKIPHTHFESYDPASGTYCFTVDHALEGHHHHHH | soluble
15 | MSLKSQNTLWKIRKIWAKFQRYTISYKQEIIGTFNPQAQMILMNHQSALDIIALEELYPKNLCWIAKKELGEIPIFKVAMKKPKLLCIDRKNPRDLVRVLKEAKERISEDRVLAIFPEGTRSKNEKMLKFQSGAKILSEKLNLKVQPILIVDSAKILDTKSFSASSGVLKIICMDLVDTNDEKWLENTRKKMQELLDQERAKLCEGHHHHHH | not soluble
16 | MSLKTHKKVKIPILLKIAKLPKSSFYEWKHKLENTIDKDKELKEMIVDIFSKSFETYGYRRLKMALKSKGYIVNHKKILRLTKELGVQCIKFRTKNGRYSSYKGTVGKIADNVLKRNFHSLQANKLWCTDVTEFKVNGQKLYLSPIIDLYNDEIISYSIQTNPNLNLTNSMLDKALKKVKNTNGFLIHSDQGFHYQHISWAKKLEENNITQSMSRKGNCLDNAIIENFFGLLKQEIYYGEKYNSVEELTKRIHKYIYWYNNIRIKEKLKGLSPVQFRKQSCYNIEGHHHHHH | not soluble
17 | MSLKTKYIFVTGGVVSSLGKGITAASLGRLLKNRGLKVSIQKFDPYINVDPGTMSPYQHGEVFVTDDGAETDLDLGHYERFIDENLSKNSNVTTGKVYWSVINKERRGDYLGGTVQVIPHITNELKERVYRVAKEKDVDVVITEIGGTVGDIESLPFLEAIRQIKYEVGFGNSCFIHVTLLPYLRKAGEIKTKPTQHSVKELRGIGIQPDIIVCRTEKEISKDVRSKIGLFCNIDGDSVISNLDAENLYEVPLMLHDQGLDSLVCKKLELECQEVDNSEWESMVKNIKSLSGEVTIGLVGKYVELHDAYISVVESLNHGGFANNVSVNVKWINSEEVTKDNVDSVLSDVDGILVPGGFGDRGIEGKIEAIRWARENKIPFFGICLGMQCAVIEYARNVLGLEGAHSSEIDPQTKYPVIDLMPDQKDIDDKGGTMRLGLYACKLSKDTNAYDAYEEEVIYERHRHRYEFNNEFRKRLTEEGLILAGTSPDDRLVEIVEIKDHPWFVGVQFHPEFKSRPNRPHALFRDFIKVACTVKEKEGHHHHHH | soluble
18 | MSLKTLAFDTSNKTLSLAILDDETLLADMTLNIQKKHSVSLMPAIDFLMTCTDLKPQDLERIVVAKGPGSYTGLRVAVATAKTLAYSLNIALVGISSLYALAASTCKQYPNTLVVPLIDARRQNAYVGYYRQGKSVMPQAHASLEVIIEQLVEEGQLIFVGETAPFAEKIQKKLPQAILLPTLPSAYECGLLGQSLAPENVDAFVPQYLKRVEAEENWLKDNEIKDDSHYVKRIEGHHHHHH | soluble
19 | MSLKTLSLCPICLKRIPATILEEDGKIIIKKTCPEHGEFKDIYWGDAELYKKFDKYEFIGKIEVTNTKVKNGCPYDCGLCPNHKSTTILANIDVTNRCNLNCPICFANANKSGKVYEPSFEDIKRMMENLRKEIPPTPAIQFAGGEPTVRSDLPELIKLARDMGFLHVQLATNGIKLKNINYLKKLKEAGLSTIYLQFDGISEKPYLVARGKNLLPIKQKVIENCKKVGFDSVVLVPTLVRGVNDNEVGGIIRYAAENVDVVRGINFQPVSFTGRVDEKTLLEGRITIPDFIKLVEEQTDGEITEEDFYPVPSVAPISVLVEKLTNDRKPTLSSHQHCGTSTYVFVDEDGKLIPITRFIDVEGFLEIVKEKIEEIGKSKMHDVKVLGEIALKLPSLIDLDKAPKSVNIKKIIDLILSVLKSDYSALAELHYHMLMISCMHFMDAYNFDVKRVMRCCIHYATPDDRIIPFCTYNTLHRQEVEEKFSIPLEEWKRMHKIGGEDDREDYEGHHHHHH | soluble
